Assay results: paper doi:10.1101/2025.11.17.688825 (bioRxiv, 2025)

Target: T1, 14-3-3ζ (residues 1-245, 14-3-3ζ-strep, chain of the 14-3-3ζ/ERα^(LBD_F) complex) (human, UniProt P63104 1-245)
T1 sequence: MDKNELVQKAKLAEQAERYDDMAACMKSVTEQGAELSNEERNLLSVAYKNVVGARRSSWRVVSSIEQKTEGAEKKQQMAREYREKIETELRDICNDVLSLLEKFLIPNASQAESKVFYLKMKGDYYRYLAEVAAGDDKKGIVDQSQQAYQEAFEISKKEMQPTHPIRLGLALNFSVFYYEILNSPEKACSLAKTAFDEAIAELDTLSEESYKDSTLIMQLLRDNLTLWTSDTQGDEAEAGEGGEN
Assay: mass photometry

B1: ERα^(LBD_F) (ERα residues 302-595, S305A, F591R, P592R, phosphorylated T594) (domain or fragment)
chain: KKNALALSLTADQMVSALLDAEPPILYSEYDPTRPFSEASMMGLLTNLADRELVHMINWAKRVPGFVDLTLHDQVHLLECAWLEILMIGLVWRSMEHPGKLLFAPNLLLDRNQGKCVEGMVEIFDMLLATSSRFRMMNLQGEEFVCLKSIILLNSGVYTFLSSTLKSLEEKDHIHRVLDKITDTLIHLMAKAGLTLQQQHQRLAQLLLILSHIRHMSNKGMEHLYSMKCKNVVPLYDLLLEMLDAHRLHAPTSRGGASVEETDQSHLATAGSTSSHSLQKYYITGEAEGRRATV
modifications: phosphorylated T594 (PKA co-expression)
  stoichiometry N: 1 ERα(LBD_F) per 14-3-3ζ (2:2)
